# Measured values from US20080118512A1 (DELENEX THERAPEUTICS, published 2008).
# T1: human ALK epitope peptide (amino acids 391-406 of the ALK protein) (human)
# T1 construct: In the yeast two-hybrid screen it was a C-terminal fusion to LexA; also called Alk LBD peptide; Alk LBD
# T1 peptide: GRIGRPDNPFRVALEY
# Molecular target: T1, human ALK epitope peptide (amino acids …)
# Test: ELISA; the coated antigen is not named on the sheet or in the legend, taken as the ALK epitope peptide
row,Binder,binding result
1,"2.11 (scFv, One of the seven improved scFvs (group m4); The full chain is assembled from ESBA521 with its VH CDR2 exchanged; also called scFv 2.11) scFv (VL-linker-VH): QSVLTQPPSVSAAPGQKVTISCSGSTSNIGDNYVSWYQQLPGTAPQLLIYDNTKRPSGIPDRFSGSKSGTSATLGITGLQTGDEADYYCATWDNDKWGVVFGGGTKLEVLGGGGGSGGGGSGGGGSSGGGSEVQLVESGGGLVQPGGSLRLSCAASGFTFSSYAMSWVRQAPGKGLEWVSAIRTDSKEQYYADSVKGRFTISRDNSKNTLYLQMNSLRAEDTAVYYCARDAWLDVLSDGFDYWGQGTLVTVSS",binds
2,"4.12 (scFv, One of the seven improved scFvs (group m4); The full chain is assembled from ESBA521 with its VH CDR2 exchanged) scFv (VL-linker-VH): QSVLTQPPSVSAAPGQKVTISCSGSTSNIGDNYVSWYQQLPGTAPQLLIYDNTKRPSGIPDRFSGSKSGTSATLGITGLQTGDEADYYCATWDNDKWGVVFGGGTKLEVLGGGGGSGGGGSGGGGSSGGGSEVQLVESGGGLVQPGGSLRLSCAASGFTFSSYAMSWVRQAPGKGLEWVSAINTRGQNEYYADSVKGRFTISRDNSKNTLYLQMNSLRAEDTAVYYCARDAWLDVLSDGFDYWGQGTLVTVSS",binds
3,"100.2 (scFv, One of the seven improved scFvs (group m4); The full chain is assembled from ESBA521 with its VH CDR2 exchanged) scFv (VL-linker-VH): QSVLTQPPSVSAAPGQKVTISCSGSTSNIGDNYVSWYQQLPGTAPQLLIYDNTKRPSGIPDRFSGSKSGTSATLGITGLQTGDEADYYCATWDNDKWGVVFGGGTKLEVLGGGGGSGGGGSGGGGSSGGGSEVQLVESGGGLVQPGGSLRLSCAASGFTFSSYAMSWVRQAPGKGLEWVSAIKTDGNHKYYADSVKGRFTISRDNSKNTLYLQMNSLRAEDTAVYYCARDAWLDVLSDGFDYWGQGTLVTVSS",binds
4,"265.1 (scFv, One of the seven improved scFvs (group m4); The full chain is assembled from ESBA521 with its VH CDR2 exchanged) scFv (VL-linker-VH): QSVLTQPPSVSAAPGQKVTISCSGSTSNIGDNYVSWYQQLPGTAPQLLIYDNTKRPSGIPDRFSGSKSGTSATLGITGLQTGDEADYYCATWDNDKWGVVFGGGTKLEVLGGGGGSGGGGSGGGGSSGGGSEVQLVESGGGLVQPGGSLRLSCAASGFTFSSYAMSWVRQAPGKGLEWVSAINMKGNDRYYADSVKGRFTISRDNSKNTLYLQMNSLRAEDTAVYYCARDAWLDVLSDGFDYWGQGTLVTVSS",binds

# The next lines start with the values.
row,binding result,Binder
1,binds,"33.11 (scFv, One of the seven improved scFvs (group m4); The full chain is assembled from ESBA521 with its VH CDR2 exchanged; also called scFv 33.11) scFv (VL-linker-VH): QSVLTQPPSVSAAPGQKVTISCSGSTSNIGDNYVSWYQQLPGTAPQLLIYDNTKRPSGIPDRFSGSKSGTSATLGITGLQTGDEADYYCATWDNDKWGVVFGGGTKLEVLGGGGGSGGGGSGGGGSSGGGSEVQLVESGGGLVQPGGSLRLSCAASGFTFSSYAMSWVRQAPGKGLEWVSAINTGGGSTYYADSVKGRFTISRDNSKNTLYLQMNSLRAEDTAVYYCARDAWLDVLSDGFDYWGQGTLVTVSS"
2,binds,"43.2 (scFv, One of the seven improved scFvs (group m4); The full chain is assembled from ESBA521 with its VH CDR2 exchanged) scFv (VL-linker-VH): QSVLTQPPSVSAAPGQKVTISCSGSTSNIGDNYVSWYQQLPGTAPQLLIYDNTKRPSGIPDRFSGSKSGTSATLGITGLQTGDEADYYCATWDNDKWGVVFGGGTKLEVLGGGGGSGGGGSGGGGSSGGGSEVQLVESGGGLVQPGGSLRLSCAASGFTFSSYAMSWVRQAPGKGLEWVSAIRTNSKEYYADSVKGRFTISRDNSKNTLYLQMNSLRAEDTAVYYCARDAWLDVLSDGFDYWGQGTLVTVSS"
